This data set deals with ATP. Briefly: switch fluorescence ratio, 500 uM ATP over buffer (Cy3 cluster intensity, sum of 5 cycles each) (fold (ratio)); higher = stronger signal-on switching upon ATP binding; sequences stand for … in TCGTCGGCAGCGTCAGATGTGTATAAGAGACAGTTTTTTTTTTTTTTTTTTTTTTTTT…TC. The conditions noted are these: aptamer strand: ATP DNA aptamer (quencher-CACCTGGGGGAGTATTGCGGAGGAAGG + anchor), 100 nM annealed; ATP concentration: 500 uM. The procedure, abridged: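 Values give the fluorescence ratio for each switch-domain sequence, averaged from per-cluster ratios of summed target-cycle to summed buffer-cycle Cy3 intensity. The Cy3-labelled switching-strand clusters sat on a modified Illumina MiSeq flow-cell, were annealed to 100 nM quencher-labelled ATP aptamer, and were imaged in selection buffer, then after 15 min with 500 uM ATP at 22 °C. Five cycles ran with NaOH stripping and re-annealing between them, and clusters outside 100-1000 RFU were excluded.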

The values that follow come from the supplement of paper PMC10126150.

± gives the standard deviation of the averaged measurements.
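Further: ATP exposure 15 min at 22 °C before imaging.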

As for TTCTACCAGC, the switch fluorescence ratio was found to be 1.01 ± 0.011. For TTCTAGGGCA the value was 1.02 ± 0.038; for TTCTAGTGGG, 1 ± 0.033; for TTCTATACAT, 1.04 ± 0.054. The value for TTCTATCGTT was 1.01 ± 0.031. The value for TTCTATGTTA was 0.997 ± 0.014; that for TTCTATTTTT was 1.03 ± 0.024; that for TTCTCCTTTT was 1.01 ± 0.021.

As for TTCTCGCCAA, the switch fluorescence ratio was determined as 1.08 ± 0.022. The value for TTCTCGGCTA was 1.56 ± 0.61; that for TTCTCGGGGA was 0.9908 ± 0.0097. The value for TTCTCGGGGG was 1.04 ± 0.043; that for TTCTCGTCTT was 1.04 ± 0.036; that for TTCTCTAGGG was 0.99 ± 0.0049. The value for TTCTGAAAAC was 1.0127 ± 0.00023. As to TTCTGAGGTG, the switch fluorescence ratio is 1.074 ± 0.0026.

Take TTCTGAGTCT: the switch fluorescence ratio came out at 1.02 ± 0.041.

Consider TTCTGATGGA, for which the switch fluorescence ratio was determined as 0.978 ± 0.036.

TTCTGGATTA: the switch fluorescence ratio is 0.994 ± 0.036.

For TTCTGGCTTT, the switch fluorescence ratio stood at 1.16 ± 0.25.

On to TTCTGGGGGT, for which the switch fluorescence ratio is 0.999 ± 0.051.

For the sequence TTCTGGGTTT, the switch fluorescence ratio turned out to be 1.01 ± 0.025. The value for TTCTGGTGCA was 1.02 ± 0.047; that for TTCTGTGGGG was 1.01 ± 0.017. The value for TTCTGTTTCC was 1.12 ± 0.13; that for TTCTTAAAAG was 1.02 ± 0.028; that for TTCTTAATGC was 0.985 ± 0.024.

For the sequence TTCTTAGTGT, the switch fluorescence ratio was 0.97 ± 0.027.

Consider TTCTTCGTTA, for which the switch fluorescence ratio is 1.03 ± 0.019. For TTCTTGGGTT the value was 0.989 ± 0.031; for TTCTTGTTTT, 1.01 ± 0.016; for TTCTTTAAAC, 0.992 ± 0.033. The value for TTCTTTAGAA was 1.03 ± 0.046.

Regarding TTCTTTATCG, the switch fluorescence ratio is 1.02 ± 0.073. For TTCTTTCGTC the value was 0.979 ± 0.021; for TTCTTTGGGA, 1.02 ± 0.028; for TTCTTTTAGG, 0.996 ± 0.03. The value for TTCTTTTATC was 0.983 ± 0.03; that for TTCTTTTGGG was 0.987 ± 0.039. The value for TTGAAAGTAT was 1.03 ± 0.048; that for TTGAAAGTGA was 1.13 ± 0.25; that for TTGAAAGTTT was 1.01 ± 0.026.

As to TTGAAATCGA, the switch fluorescence ratio came out at 1.01 ± 0.03.

Take TTGAAATTTG: the switch fluorescence ratio was found to be 1 ± 0.011.

As for TTGAACCTTT, the switch fluorescence ratio is 1.02 ± 0.012. For TTGAAGTCGT the value was 0.988 ± 0.02. For TTGAAGTGGG the value was 1.03 ± 0.014. In the case of TTGAATAAAA, the switch fluorescence ratio stood at 1.005 ± 0.0096. For TTGAATACAC the value was 1.11 ± 0.17. The value for TTGAATAGTT was 0.998 ± 0.017; that for TTGAATATGG was 1.01 ± 0.021; that for TTGAATCGAC was 1.08 ± 0.042. For TTGACCTGTG, the switch fluorescence ratio is 1.02 ± 0.013.

Turning to TTGACGAATC, the switch fluorescence ratio amounted to 1.067 ± 0.002. For TTGACTAT the value was 1.005 ± 0.0027; for TTGACTTTGA, 1.02 ± 0.016; for TTGAGAGGGG, 0.981 ± 0.021. With TTGAGAGGGT, the switch fluorescence ratio came out at 0.9859 ± 0.0089.

Take TTGAGCCTGT: the switch fluorescence ratio stood at 0.977 ± 0.028. For TTGAGCTTAT the value was 0.993 ± 0.018. For TTGAGGACGG the value was 1.03 ± 0.016. Regarding TTGAGGCAGT, the switch fluorescence ratio came to 1.54 ± 0.55. For TTGAGGCCGG the value was 1.038 ± 0.0038; for TTGAGGCGGG, 0.993 ± 0.045.

As to TTGAGGGAGG, the switch fluorescence ratio turned out to be 1 ± 0.034.

Consider TTGAGGGATG, for which the switch fluorescence ratio stood at 0.992 ± 0.013. For TTGAGGGGGT the value was 1.05 ± 0.16; for TTGAGGGGTA, 1.01 ± 0.021. For the sequence TTGAGGGGTT, the switch fluorescence ratio was 0.979 ± 0.0086.

As for TTGAGGTGCA, the switch fluorescence ratio is 0.992 ± 0.025. For TTGAGGTGGG the value was 1.23 ± 0.41; for TTGAGGTTCG, 1.05 ± 0.14; for TTGAGGTTGA, 0.994 ± 0.029.

In the case of TTGAGTATTT, the switch fluorescence ratio came to 0.98182 ± 0.00089. The value for TTGAGTCCGT was 1.05 ± 0.075; that for TTGAGTCGGA was 1.42 ± 0.7. The value for TTGAGTGAAT was 1 ± 0.042; that for TTGAGTGTTA was 1.01 ± 0.011. The value for TTGAGTGTTT was 1.02 ± 0.017. Take TTGAGTTGTT: the switch fluorescence ratio amounted to 1.02 ± 0.082. TTGAGTTTTT: the switch fluorescence ratio was determined as 0.987 ± 0.024. TTGATACCTA: the switch fluorescence ratio was determined as 1.04 ± 0.038. Turning to TTGATAGGTC, the switch fluorescence ratio was 1.01 ± 0.04. The value for TTGATCTT was 1.008 ± 0.0042.

Turning to TTGATCTTAG, the switch fluorescence ratio came out at 1.02 ± 0.018. The value for TTGATCTTGG was 1.04 ± 0.013. For TTGATGCGTG the value was 0.9661 ± 0.0063; for TTGATGGGGT, 1.03 ± 0.1. The value for TTGATGGTCA was 0.943 ± 0.041; that for TTGATGTAAA was 0.997 ± 0.033; that for TTGATTAGAT was 1.014 ± 0.0016. With TTGATTGGTC, the switch fluorescence ratio turned out to be 1.05 ± 0.019.

TTGATTGTGG: the switch fluorescence ratio was 1.03 ± 0.059. With TTGATTGTTG, the switch fluorescence ratio was 0.982 ± 0.013. As for TTGATTTCGA, the switch fluorescence ratio came to 1.06 ± 0.019. The value for TTGATTTTCA was 0.999 ± 0.015; that for TTGCAAAAAT was 1 ± 0.046; that for TTGCAAGTTT was 0.9811 ± 0.00083. The value for TTGCACACGC was 1.26 ± 0.08. The value for TTGCACGGGC was 1.007 ± 0.0052. For TTGCACTAAC, the switch fluorescence ratio came to 1.22 ± 0.05. For TTGCAGCTTA, the switch fluorescence ratio worked out at 1.05 ± 0.035. For TTGCAGGGGG the value was 0.998 ± 0.027. For TTGCAGGTTT the value was 1.11 ± 0.18; for TTGCATCGGG, 0.9891 ± 0.0034; for TTGCATGAGG, 1.01 ± 0.078. As for TTGCATGGAA, the switch fluorescence ratio came out at 1.01 ± 0.0049. For TTGCCATGTT the value was 0.978 ± 0.036; for TTGCCCCGGC, 1.04 ± 0.016; for TTGCCCGAA, 1.01 ± 0.043. The value for TTGCCGCAGC was 1.49 ± 0.054. The value for TTGCCGGGGC was 0.998 ± 0.017; that for TTGCCGTGTT was 1.02 ± 0.016. With TTGCCTGTG, the switch fluorescence ratio was 1.03 ± 0.033. The value for TTGCGACGGT was 1.02 ± 0.023; that for TTGCGAGGGC was 1 ± 0.028. For TTGCGATTTT the value was 0.993 ± 0.028; for TTGCGCAATT, 1.51 ± 0.47; for TTGCGCCTTT, 1.03 ± 0.0099. For the sequence TTGCGGACCA, the switch fluorescence ratio was determined as 0.996 ± 0.043.
